The results in this text go back to patent US20240270821A1, “GIP/GLP1/GCG TRI-RECEPTOR AGONISTS AND USES THEREOF” (priority 2023, published 2024).

Substitutions are numbered along the chain they refer to. Starred links: 1 amine or outer side, 2 acyl side, 3 side chain; linkers in the order of their positions; H or OH if unused. Non-standard residues stand in square brackets, D forms with d. Groups on a side chain read outwards from the residue. No end group written: not given here. *: point of attachment. C18 diacid = O=C(O)CCCCCCCCCCCCCCCCC(=O)*; γGlu = O=C(O)[C@H](CCC(=O)[*:2])N[*:1]; 4Pal = N[C@@H](Cc1ccncc1)C(=O)O; αMeL = CC(C)C[C@](C)(N)C(=O)O; Dab = NCC[C@H](N)C(=O)O; AEEA = NCCOCCOCC(=O)O; Aib = CC(C)(N)C(=O)O

Sequences and labels used below:
T1: human GIP receptor (human) (UniProt P48546)
T1 sequence (looked up): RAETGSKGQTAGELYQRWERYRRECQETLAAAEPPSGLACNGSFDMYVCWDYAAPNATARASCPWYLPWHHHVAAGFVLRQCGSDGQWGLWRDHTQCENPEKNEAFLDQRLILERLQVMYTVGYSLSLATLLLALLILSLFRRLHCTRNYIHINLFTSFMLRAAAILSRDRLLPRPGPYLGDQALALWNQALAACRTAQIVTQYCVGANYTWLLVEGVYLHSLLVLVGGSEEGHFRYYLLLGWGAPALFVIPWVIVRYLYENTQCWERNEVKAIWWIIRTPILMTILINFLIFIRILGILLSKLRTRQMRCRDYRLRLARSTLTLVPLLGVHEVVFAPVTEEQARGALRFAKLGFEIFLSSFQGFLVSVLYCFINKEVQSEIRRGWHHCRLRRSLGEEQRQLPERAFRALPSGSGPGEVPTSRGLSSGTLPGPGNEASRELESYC

B1: Example 166 (peptide)
chain: YXQGTFTSDFSXXLDKKAQXAFIEYLLEXGPSSGEPPPSGS
modifications: Aib, Orn, αMeL, acylated K, C-terminal amide; synthetic construct; SITE 2: note = 2-Aminoisobutyric Acid; SITE 12: note = L-ornithine; SITE 13: note = alpha-methyl-leucine; SITE 17: note = Lysine is chemically modified through conjugation of the epsilon-amino group of the Lysine side chain with (2-[2-(2-Amino-ethoxy)-ethoxy]-acetyl)2-(gamma-Glu)
B2: Example 179 (peptide)
chain: B1 chain with P31E, E35A
modifications: non-natural residues (Aib, Orn, αMeL); lipidated K; C-terminal amide; synthetic construct; SITE 2: note = 2-Aminoisobutyric Acid; SITE 12: note = L-ornithine; SITE 13: note = alpha-methyl-leucine; SITE 17: note = Lysine is chemically modified through conjugation of the epsilon-amino group of the Lysine side chain with (2-[2-(2-Amino-ethoxy)-ethoxy]-acetyl)2-(gamma-Glu)
B3: Example 174 (peptide)
chain: B1 chain with Y25W, X29G, P31S, E35A, S41T
modifications: non-natural residues, acylated Lys, C-terminal amide; synthetic construct; SITE 2: note = 2-Aminoisobutyric Acid; SITE 12: note = L-ornithine; SITE 13: note = alpha-methyl-leucine; SITE 17: note = Lysine is chemically modified through conjugation of the epsilon-amino group of the Lysine side chain with (2-[2-(2-Amino-ethoxy)-ethoxy]-acetyl)-(gamma-Glu)
B4: Example 187 (peptide)
chain: B1 chain with F10X, X12R, L27I, P31E, E35A
modifications: Aib, 4Pal, αMeL; lipidated Lys; C-terminal amide; synthetic construct; SITE 2: note = 2-Aminoisobutyric Acid; SITE 10: note = 3-(4-Pyridyl)-L-alanine; SITE 13: note = alpha-methyl-leucine; SITE 17: note = Lysine is chemically modified through conjugation of the epsilon-amino group of the Lysine side chain with (2-[2-(2-Amino-ethoxy)-ethoxy]-acetyl)
B5: Example 172 (peptide)
chain: B1 chain with Y25W, X29G, P31S, E35A, S41E
modifications: Aib, Orn, αMeL, acylated Lys, amide; synthetic construct; SITE 2: note = 2-Aminoisobutyric Acid; SITE 12: note = L-ornithine; SITE 13: note = alpha-methyl-leucine; SITE 17: note = Lysine is chemically modified through conjugation of the epsilon-amino group of the Lysine side chain with (2-[2-(2-Amino-ethoxy)-ethoxy]-acetyl)-(gamma-Glu)
B6: Example 183 (peptide)
chain: B1 chain with P31X, E35A
modifications: Aib, Orn, αMeL, 4Pal, acylated K, C-terminal amide; synthetic construct; SITE 2: note = 2-Aminoisobutyric Acid; SITE 12: note = L-ornithine; SITE 13: note = alpha-methyl-leucine; SITE 17: note = Lysine is chemically modified through conjugation of the epsilon-amino group of the Lysine side chain with (2-[2-(2-Amino-ethoxy)-ethoxy]-acetyl)2-(gamma-Glu)
B7: Example 176 (peptide)
chain: B1 chain with Y25W, X29G, P31T, E35A
modifications: Aib, Orn, αMeL; AEEA-γGlu-C18 diacid Lys; C-term amide; synthetic construct; SITE 2: note = 2-Aminoisobutyric Acid; SITE 12: note = L-ornithine; SITE 13: note = alpha-methyl-leucine; SITE 17: note = Lysine is chemically modified through conjugation of the epsilon-amino group of the Lysine side chain with (2-[2-(2-Amino-ethoxy)-ethoxy]-acetyl)-(gamma-Glu)

One assay concerns the target T1, human GIP receptor (human). Briefly: cell-based or functional assay.
The molecule Y[Aib]QGTFTSD[4Pal]S[Dab][αMeL]LDKK([AEEA-γGlu-C18 diacid])AQ[Aib]AFIEYLIE[Aib]GESSGAPPPSGS-NH2 [Example 188] returned a Relative cAMP EC50, nM (0.1% casein) of 0.193 nM and a cAMP Rel EC50, nM (1% HSA) of 43.8 nM.

In the case of B1, the Relative cAMP EC50, nM (0.1% casein) was 0.118 nM and the cAMP Rel EC50, nM (1% HSA) was found to be 21 nM.

Molecule B2 came in with a Relative cAMP EC50, nM (0.1% casein) of 0.104 nM and a cAMP Rel EC50, nM (1% HSA) of 21.3 nM.

Molecule B3 came in with a Relative cAMP EC50, nM (0.1% casein) of 0.198 nM and a cAMP Rel EC50, nM (1% HSA) of 20.8 nM.

As for B4, the Relative cAMP EC50, nM (0.1% casein) came to 0.111 nM and the cAMP Rel EC50, nM (1% HSA) turned out to be 15.6 nM.

B5: the Relative cAMP EC50, nM (0.1% casein) worked out at 0.174 nM and the cAMP Rel EC50, nM (1% HSA) came to 29.3 nM.

B6 yielded a Relative cAMP EC50, nM (0.1% casein) of 0.0759 nM and a cAMP Rel EC50, nM (1% HSA) of 13.7 nM.

Consider B7, for which the Relative cAMP EC50, nM (0.1% casein) amounted to 0.212 nM and the cAMP Rel EC50, nM (1% HSA) stood at 40.7 nM.

In a further assay the target is human GLP-1R (SNAP-GLP-1R expressed in HEK293 cells) (human) (UniProt P43220). Briefly: cell-based or functional assay.
human GLP-1R (SNAP-GLP-1R expressed in HEK293 cells) (human), sequence (P43220 24-463): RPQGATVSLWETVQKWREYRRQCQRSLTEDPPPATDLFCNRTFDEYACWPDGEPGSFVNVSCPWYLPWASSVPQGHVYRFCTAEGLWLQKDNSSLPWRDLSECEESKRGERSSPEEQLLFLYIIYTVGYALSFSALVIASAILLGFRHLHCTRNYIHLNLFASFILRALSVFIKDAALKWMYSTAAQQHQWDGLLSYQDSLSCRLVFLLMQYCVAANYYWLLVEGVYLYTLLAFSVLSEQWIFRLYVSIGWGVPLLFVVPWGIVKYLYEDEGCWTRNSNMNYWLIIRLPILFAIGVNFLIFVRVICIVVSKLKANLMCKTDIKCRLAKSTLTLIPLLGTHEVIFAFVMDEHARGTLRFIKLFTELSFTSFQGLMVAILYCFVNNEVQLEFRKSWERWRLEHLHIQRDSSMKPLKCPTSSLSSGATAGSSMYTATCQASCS
For the molecule Y[Aib]QGTFTSD[4Pal]S[Dab][αMeL]LDKK([AEEA-γGlu-C18 diacid])AQ[Aib]AFIEYLIE[Aib]GESSGAPPPSGS-NH2 [Example 188], the GLP1R Internalization EC50 amounted to 44.7 nM and the Internalization % TOP came out at 40.2%.

In the case of B1, the GLP1R Internalization EC50 amounted to 74.6 nM and the Internalization % TOP is 44.2%.

Take B2: the GLP1R Internalization EC50 worked out at 63.4 nM and the Internalization % TOP is 48.4%.

B3: the GLP1R Internalization EC50 was 123 nM and the Internalization % TOP was determined as 52.8%.

The molecule B4 had a GLP1R Internalization EC50 of 17.2 nM and an Internalization % TOP of 57%.

On to B5, for which the GLP1R Internalization EC50 was 121 nM and the Internalization % TOP stood at 41.4%.

Turning to B6, the GLP1R Internalization EC50 was 100 nM and the Internalization % TOP worked out at 45.4%.

Regarding B7, the GLP1R Internalization EC50 came to 103 nM and the Internalization % TOP came out at 48%.

In another assay the target is hGLP-1R (Homo sapiens, UniProt P43220). Briefly: cell-based or functional assay.
hGLP-1R, sequence (P43220 24-463): as above
Y[Aib]QGTFTSD[4Pal]S[Dab][αMeL]LDKK([AEEA-γGlu-C18 diacid])AQ[Aib]AFIEYLIE[Aib]GESSGAPPPSGS-NH2 [Example 188] displayed a Relative cAMP EC50, nM (0.1% casein) of 3.43 nM and a cAMP Rel EC50, nM (1% HSA) of 436 nM.

Molecule B1 yielded a Relative cAMP EC50, nM (0.1% casein) of 6.96 nM and a cAMP Rel EC50, nM (1% HSA) of 1500 nM.

The molecule B2 yielded a Relative cAMP EC50, nM (0.1% casein) of 5.81 nM and a cAMP Rel EC50, nM (1% HSA) of 904 nM.

Regarding B3, the Relative cAMP EC50, nM (0.1% casein) came to 2.33 nM and the cAMP Rel EC50, nM (1% HSA) is 208 nM.

Regarding B4, the Relative cAMP EC50, nM (0.1% casein) came out at 1.11 nM and the cAMP Rel EC50, nM (1% HSA) was determined as 178 nM.

The molecule B5 came in with a Relative cAMP EC50, nM (0.1% casein) of 3.5 nM and a cAMP Rel EC50, nM (1% HSA) of 457 nM.

B6: the Relative cAMP EC50, nM (0.1% casein) came out at 5.03 nM and the cAMP Rel EC50, nM (1% HSA) is 295 nM.

The molecule B7 gave a Relative cAMP EC50, nM (0.1% casein) of 2.92 nM and a cAMP Rel EC50, nM (1% HSA) of 389 nM.

For the next assay, the target named is human glucagon receptor (human) (UniProt P47871). Briefly: cell-based or functional assay.
human glucagon receptor (human), sequence (P47871 26-477): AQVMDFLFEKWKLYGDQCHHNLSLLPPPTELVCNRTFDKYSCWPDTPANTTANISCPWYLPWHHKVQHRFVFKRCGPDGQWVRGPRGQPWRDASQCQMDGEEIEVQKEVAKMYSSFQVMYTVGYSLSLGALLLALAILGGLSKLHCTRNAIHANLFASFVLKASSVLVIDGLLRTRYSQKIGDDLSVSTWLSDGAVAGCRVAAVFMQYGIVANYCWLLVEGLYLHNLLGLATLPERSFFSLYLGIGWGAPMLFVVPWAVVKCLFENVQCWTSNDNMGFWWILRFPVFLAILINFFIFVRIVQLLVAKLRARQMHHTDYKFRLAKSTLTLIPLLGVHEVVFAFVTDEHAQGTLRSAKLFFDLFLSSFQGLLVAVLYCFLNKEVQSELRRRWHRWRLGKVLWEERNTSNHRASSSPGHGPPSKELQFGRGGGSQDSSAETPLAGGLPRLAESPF
Regarding Y[Aib]QGTFTSD[4Pal]S[Dab][αMeL]LDKK([AEEA-γGlu-C18 diacid])AQ[Aib]AFIEYLIE[Aib]GESSGAPPPSGS-NH2 [Example 188], the Relative cAMP EC50, nM (0.1% casein) stood at 10.8 nM and the cAMP Rel EC50, nM (1% HSA) was 2920 nM.

On to B1, for which the Relative cAMP EC50, nM (0.1% casein) came out at 3.82 nM and the cAMP Rel EC50, nM (1% HSA) worked out at 724 nM.

Molecule B2 yielded a Relative cAMP EC50, nM (0.1% casein) of 4.82 nM and a cAMP Rel EC50, nM (1% HSA) of 1440 nM.

For B3, the Relative cAMP EC50, nM (0.1% casein) is 4.24 nM and the cAMP Rel EC50, nM (1% HSA) stood at 307 nM.

For the molecule B4, the Relative cAMP EC50, nM (0.1% casein) was found to be 14.8 nM and the cAMP Rel EC50, nM (1% HSA) turned out to be 2970 nM.

With B5, the Relative cAMP EC50, nM (0.1% casein) stood at 3.38 nM and the cAMP Rel EC50, nM (1% HSA) is 605 nM.

Molecule B6 showed a Relative cAMP EC50, nM (0.1% casein) of 3.83 nM and a cAMP Rel EC50, nM (1% HSA) of 504 nM.

The molecule B7 showed a Relative cAMP EC50, nM (0.1% casein) of 4.1 nM and a cAMP Rel EC50, nM (1% HSA) of 461 nM.
